# Test results published in a protein production outcome set (Wang et al. 2014).
# Assay: label from the status in PepcDB records
# 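Also: failed if final PepcDB status was selected cloned or expressed and not failed if soluble or beyond.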
row,Sequence,protein production
1,MDLTIQHFIALAPLLITSLTVVVVMLAIAWRRNHSQTFLLSVAGLNLALLSIYPALKVAPLVVTPLLHIDNFACLYMAIILASTLACVTMAHAYLGDGKVGYPGNREELYLLILLAAAGGLVLVSAQHLAGLFIGLELLSVPVYGLVAYAFFNKRSLEGGIKYMVLSAAGSAFLLFGMALLYAEAGSLSFEGIGKAIAATGMPSPIATVGLGMMVVGLAFKLSLVPFHLWTPDVYEGAPAPVAAFLATASKVAVFAVLVRLFQISPAASSGVLHDVMAVIAVASILVGNLLALTQTNLKRLLGYSSIAHFGYLMIALVASKGMAVEAIGVYLATYVLTSLGSFGVITMMSSPYSGRDADAMFEYRGLFWRRPYLTAVMTLMMLSLAGIPLTAGFIGKFYIIATGVESQLWWLIGALVIGSAIGVFYYLRVMVTMYLVDNKLPRHDAAINWAQRTGGVMLLAVAILTFVLGVYPQPLLDLVVNAGLHAAG,not failed
2,MDLVVITETTIPTKITHVNKKSSDELLRKFADPDDVDESSKSTKRRKKSAKSSSREKGVDIESNTSGLVERKRLLLAPASKRRSLFIRQLASGKSHLRNKSLVRTIGKTWRKTMEGASRVFIEKHYNRHRRLTNDVV,failed
3,MDMEQRERWATKIGLILAMAGNAIGLGNFVRFPTQVAGNGGGAFMVPYFLALFLLGIPVMWVEWVQGRYGGKYGHGTLGPTFYLMARESLKPRSALWFGLIGGALAFATTTLLNSYYLHLIGWSAAYSWFSITGAYYGKNTAQFFSQYLSNHGLVFLFWGITVVLLGIAVGQGVSKGIERWVKVMMPLLYVFAIILVIYVFALGSPLGQPQWSTIKGFEFIWSPNWGYLKDHLWKVMLAASGQIFFTLSLGMGIIQNYASYLGPKDDVALSGLATVSLNEFAEVVLGGSIAVPLAVAYAPKIVPPDVLAKGSDAALAWISENFGLGFSYTSLPNIFVQMGTAGRFFGALWFLLLWFAGFTSAIAMYNYLTALLEEDLGIKRSVGTWVVFIIYFLLGIPVVYINGYLDQVDAWISFQLALLALFDIIVSVWLFKPDNFWRELHEGALINVPEFYKWITVIIAPIFIALPLFGTFTDLVSKTLGWPAKIAILTMLTIGAIEAYYAIKKKYGEELEKNEVIIKV,failed
4,MDNASEQRNYTTFWVGLASLTLEVVFIMAKSRVKKRPDGRYAMQIYLGTVDGKRKYKTVYGGTPKEVQKKADEVRILMGKGIDISAQRDTFKEWGNHWLKIKKAIVSSAHYKTCEQKLRIINCYIGDMPISQIKTANVQNIIFDLSSLNRWTGKPTAKRTLVEYRSVCRQVFQLAIENRIIDYNPASSVKIVSNQLKKERRALSVEEQGWIINTPHRAQKAAMIMMFAGLRRGEVIPLTWNDIDFEAGTIRVNKSVFKEGTRFNIKSGAKTESGNRVVNIPQILIDFLKLQPKDTILVCPDTKDVMMTETSWRRMWDSYIKDLNIKYGDLNGKRSKYDPKGVPITIPRITPHWLRHTFCTLLYLSGTDVLTAKEQMGHSDIKTTLGIYTHLDKEHKRNAVSKLNEYIETHASHMQVKNS,failed
5,MDNLSFHDGNIFNLLHTRSQDPSHEVDQRMQFHSSLVRRLSQEQELEGHQGCVNALAWNSNGSLLISGSDDLRINIWNYSSRKLLHSIDTGHTANIFCTKFVPETSDELVVSGAGDAEVRLFNTSRLSGRAEDDNAIIPSALYQCHTRRVKKLAVEPGNPNVVWSASEDGTLRQHDFRESTSCPPAGTAHQECRSVLLDLRSGAKRALADPPKQTLSLKSCDISATRPHLLLVGGSDAFARLYDRRMLPPLASSRKRMPPPPCVNYFCPMHLSERGRTNLHLTHVTFSPNGEEVLLSYSGEHVYLMNVNNGICSTGIMQYTPGDVDNLFSFSNNLHDVESPPQVSTTPQNGFHRSSNAATVKKCTELVEIAKWSLEEGTDVFYAIEAANEVLDAHSNDIESALRHECLCTRAALLLKRKWKNDAHMAVRDCHNARRIDASSFKAHYYMSEALQQLGKCKEALDFATAAQHMNPSDADIVAKVESIKRDLQAAGAEKNEETGAGTTRVLSLSDILYRSEANSDSSHDMSRSEREDSDYDEELELDIQTSLSDDEGRDTDSNSMRGSLNLRIHRVGDDKPMENTVDNASSGTASSSQNDRTSYQPEGAIDMKRRYVGHCNVGTDIKQASFLGQRGEYIASGSDDGRWFIWEKQTGRLMKVLVGDESVLNCIQCHPFDSVVATSGIDNTIKIWSPTASVPSIVAGGSAGPATANVVEVMESNQQKLSRNRENPLSVELMQRFRMQEFAEGNFHPFECTQS,failed
6,MDNRTGEMEVFVSAAELQSFSAAGRRLKLSPSAVSKLVTRIEDRLGTRLLVRSTRMMTLTPEGEIYLARARRILADIADTEQIVAAGGKLVPRGLLRVNASVGFGERFLLPLIPAFLELYPEVQLDISLTDGIIGLIEERTDIAIRSGAMDDSSLKARKLLESRRVIIASPSYIKRHGMPQTPADLAAHNCFSFNFRRSLNEWPFRDPGSTEIYRLPVSGNSSVNSGMIMRRLCLAGSGLGRVGQFHVQPDIDAGTLVPVLEDYNPDDIEEIHAVFAGHEHLATRIRAFIDFLAEHVGKDRA,failed
7,MDNSGIYVGLDIGTTSIKVIVAERVKGQMNVIGVGSARSNGLSRGVIVDIDKAAETIRSAVRQAEEKASIEIKKVIAGVPANLVKIERCRGMIAVADESKEINNEDVQNVAAAALVQSLPPEREVLDVIPDEFVVDGFDGIKDPRGMVGVRLEMHGTLFTGPKTIIHNTRKALEKAGLQIEQIVIAPLALSSLVLNDGEQDFGSIIIDMGGGQTTAAVIHDHQLKYTYVDQEGGQYITKDISVVLNTSIENAEKLKRDYGYADAQQASDDELFPVDVVGQSTPEQISEQYLAEIIEARLDQIFDKVKQHLDEIRALELPGGIVLTGGVAALPGITDLAAQRFGTRVRVFTPNQMGLRHPSFDEALAVIKYQAALSEVTLLVKSALTGDTRASVALEFADTTPAPSQPAAQPKKATKKQSAPQAPQEQADPDHKGTVERVKGFFNHFFD,failed
8,MDNSLLSEIWRQSLAFPWLSAVILNSFLLALAAIAPKKLLTPWGYGHAWVLGVIIWAALGWRGYLVVLAYFFVGSAVTRIGQKEKEAAGIAEKRSGQRGPENVWGSALTAALCALAIAFGPEPWQLWLALGYVASFSTKLSDTTASEVGKAYGKNTFLITTLQPVPRGTEGAVSVEGTLAGFAAGLALAVLGYGVGLISFGGIIFSTLAAFIATNLESVIGATLQNKWPWLTNEVVNGINTFLGAAIAIGIEATAQLI,failed
9,MDNVGCDKRISWPCHCSKSRTAPRRGSHLMARGRKRRFNPNIPGHIEQEALPKGIYWENGRWYMHEDHPDGGRQVKRTVAFRSARLSELHAIAESRLRGDVRGTLRYLFDRFHEASEFKELQHDTQKDYRRYADTLANYVRKDGSKLGGVQLEHITTPVVQRLLETFANGRPATRLQQALPPTPSKANHLYRYLRRTLAWGVRHGYCKENPAIGVLQAKEAKAFRMPTPDAFEAVLQFARERGALKPHTKGSFPSYLPPVMVLAYSARLRGIEVCSLTDAHRLEHGVHASRRKGSRDTLTTWDAHMTEAWEALLARRSEICNKPGRNFPIPMKPEERFFLIEQTGNPIVKSSLDSAWQRFIPAAIRDGVIKSEERFSLHGLKHRGVTDTEGNRGDKQDAAGHVSSSMTDRYDHELPVVKPPRRR,failed
10,MDPCTGGNGCVHICQSENGTARCACHAGYQLPEDKNICEDINECAEGLSYCGHCCVNSMGSFTCACQTGFELGADRKQCYSNWQQSQPRLYLSLSDFFLLFPVHDYTLPGIELEIVNSCEKNNSVCSHHREHEIGAPRCSCNHGHQLDSDEKTCIDLDECENGEACCAQLCINYLGGYKCRCQEGFQITSNGCECDALDDDELEEEEEE,failed
11,MDPKKADIIRLEALPQDLLGGIVAKVGATTAEDFHNCILVCKELGASANDKHVFKTLNLALLVKKPLSGTQTPSYYENMS,not failed
12,MDPLKRVENELKKCVKCGACRAHCPAFATFGKEPAVARGKVALAQHLLKGDIELDDATYAAMSKCLLCGSCVEKCPNDVPTDEIVVVAREALSGQRGLTTFHAAVGRVIRNRSLMKFGAAAARILGPLFFRKVPETSGLRLRFPLPFLGGKRHIPSIAKKPFLDRHPEVIPGEPGKPRIVYFVGCMTNFCYPQVGEAALALFRHLGCTVIIPKNQQCCGLPGMSGGDLDTVRGLAEKNLAELERYEADYIMTACATCGGALHKFYPNLVGKRHPELAARLKAIAEKTVDAAQLLQKLGLNPEETGAGSDIRVTYHDPCHLRTRAITRQPRELLQGTPGVELAEMEGADKCCGLGGTFNVYHYESSLAINKMKSAAIINTGADAVVTGCPGCMMQLSDGLKQQRNRTRVLHTLEILARSIRP,failed
13,MDPNQPVKFTEFMPDSGGIRTKFIVKGSNFGEDKSQVKVYFKDEVGNEREALVLGVKPDVIYAQVPKQAGGESHVRVEIAGKEAELSNAEKTFKYIVTSSVSTVVGKAKEGGNKDGTLGETTFNTPRYVAVDNDDNVFIFDSDGRTRLSSIEQNKTITLLDGMVIDQPLFIDKEKKQLFGPCDNANFGCFLFDANVSWVADKMGQLLANGGWMHSVVLDPVDSTFVIYRQNTGQLWTQPFDKNRRTLNPNKAKRIGTLYNTGSNGLCAYNPVDKYVYCVLHSKSAVYRFKLTRDADGWPALDGDIDEYIPGAGAGFRDGDVQEAQFKEPRGIAIDKEGNLYIADVGNNRIRKVDTKLNVVTTIAGSGAAGYKDGDPLEAQFNQPWGVYLDKNEFLYIADQNNHCIRKLAIELEHHHHHH,failed
14,MDPNVITVTSYANIAIIKYWGKENQAKMIPSTSSISLTLENMFTTTSVSFLPDTATSDQFYINGILQNDEEHTKISAIIDQFRQPGQAFVKMETQNNMPTAAGLSSSSSGLSALVKACDQLFDTQLDQKALAQKAKFASGSSSRSFFGPVAAWDKDSGAIYKVETDLKMAMIMLVLNAAKKPISSREGMKLCRDTSTTFDQWVEQSAIDYQHMLTYLKTNNFEKVGQLTEANALAMHATTKTANPPFSYLTKESYQAMEAVKELRQEGFACYFTMDAGPNVKVLCLEKDLAQLAERLGKNYRIIVSKTKDLPDV,not failed
15,MDPRQFEHTVVADNDIHSIVMSYLLHNCFNETADSLASSTGVKQPAIDRDNMERRKQIIHFILERKALKAFELTEQLAQDLLEKNKDLQFDLLCLHFVELICAGNCTEALKFGKTRLAPFGKVKKYVEKLEDVMALLAYEDPEKSPMFHLLSSEYRQQVADNLNRTILEHTNHPSYTPMERIIQQVTVVRQYLTEENGKDAFPPFSLKDSLKG,failed
16,MDPSRLLRTERERKAVMPPFSPGPLPIDPVLPALLEALASHGRAVLIAPPGAGKTTRVPPALLGALWLGGQKVVMLEPRRLATRAAARRMAFEAGEAVGQRFGFRVRGESRSGPLTRVEVMTEGILTRRIQDDPELAGVGCVILDEFHERGLQGDLAFALLREIQGALRPDLRLLVMSATLDGAAIAALMDDAPVIESHGRAFPVTITHGERPAARDLGPAMARTILRALEDEPGSVLAFLPGEREIAAVAGALARALPADTVLRPLYGALPPAEQDAAISPCPPGQRKVVLATDIAETSLTIEGVRIVVDSGLRRSPRFDPQTGLSRLDTVRISQAGAEQRRGRAGRLEPGVCLRLWPEAEHRALPAQETPEILAADLAPLALELARWGARDAAALCWPTPPPPGPLAQARDLLTSLGALEPAGGLSAHGAAMAALPLHPRLAHMVLAAKADGADDGALACLLAALLAERDILRPGPGAARDRDLTTRLEILIGQGRRAPAGQILRQPTLGAVRDEAARLRQLAGIAASASPEPARCGRVLARAYPDRIAQARPGQPGRFLLSSGRGALIDVGDPLAAAAFLAVAEVDGAGSEARVFLAAPLDRADLEELFDEALRPCETVTWDPRAEAVVARVERRLGALVFESRDLPDRADPARTTPAVCAGIRRLGLGCLPWTRETDRLRARVAFLHRVHSADDWPDLSDDALLASLADWLGPWLDGITRRSAFARIDLMAALKALIGWRRLADLDRLAPAQMDVPSGVKVALDYEVPDGPVLAARVQQLFGLTRTPAVLDGGHPVLVHLLSPAGRPLQVTRDLAGFWKGSYAEVRKDMRGRYPKHPWPEDPTGAEATNRVKPRGQ,failed
